For assay [1], the target named is T1, human IL-12 (human, UniProt P29460 23-328; P29459 23-219).
T1 construct: Recombinant (Peprotech); FLAG-tagged IL-12 in the flow cytometry assays, biotinylated in the IL-12Rβ2 assay; also called hIL-12
T1 sequence 1: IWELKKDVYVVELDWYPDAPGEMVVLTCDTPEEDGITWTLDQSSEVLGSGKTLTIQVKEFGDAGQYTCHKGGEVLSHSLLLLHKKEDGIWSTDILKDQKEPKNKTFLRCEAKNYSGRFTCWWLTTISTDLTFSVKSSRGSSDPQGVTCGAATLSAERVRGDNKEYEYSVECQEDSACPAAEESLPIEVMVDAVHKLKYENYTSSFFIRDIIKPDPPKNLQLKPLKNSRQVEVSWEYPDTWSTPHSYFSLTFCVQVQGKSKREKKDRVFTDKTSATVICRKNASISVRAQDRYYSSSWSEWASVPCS
T1 sequence 2: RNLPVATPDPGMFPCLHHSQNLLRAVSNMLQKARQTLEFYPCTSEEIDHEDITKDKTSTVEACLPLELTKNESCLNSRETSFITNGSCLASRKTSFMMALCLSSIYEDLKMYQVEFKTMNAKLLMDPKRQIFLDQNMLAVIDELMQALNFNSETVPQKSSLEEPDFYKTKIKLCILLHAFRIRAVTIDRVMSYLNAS
Nature of the assay: ELISA, coated IL-12. In outline:
(§1)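 Each value is an absorbance measuring binding. Plates (Maxisorp) carried cytokine coated at 1 μg/mL in carbonate buffer pH 9.6 overnight at 4° C, were blocked with 1% BSA in PBS for 1 hour at 25° C, and received antibody titrations for 1 hour at 25° C. Detection used goat anti-human IgG or anti-murine immunoglobulin HRP at 1:2000 for 1 hour, then TMB stopped with 1M HCl, with absorbance taken at 450 nm (reference 620 nm).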

The target of assay [2] is T2, human IL-23 (human, UniProt P29460 23-328; Q9NPF7 20-189).
T2 construct: Recombinant (Ebioscience); HIS-tagged in flow cytometry, biotinylated in some assays; also called hIL-23; rhIL-23
T2 sequence 1: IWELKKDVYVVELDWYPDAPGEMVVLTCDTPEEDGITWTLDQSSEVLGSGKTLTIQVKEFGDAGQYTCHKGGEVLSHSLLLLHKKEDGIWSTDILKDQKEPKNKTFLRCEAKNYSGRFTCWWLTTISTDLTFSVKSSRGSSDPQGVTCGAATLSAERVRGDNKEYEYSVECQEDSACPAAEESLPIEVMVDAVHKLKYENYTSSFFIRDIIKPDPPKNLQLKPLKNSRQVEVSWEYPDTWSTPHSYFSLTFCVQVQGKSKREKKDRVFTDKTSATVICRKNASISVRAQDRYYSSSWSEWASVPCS
T2 sequence 2: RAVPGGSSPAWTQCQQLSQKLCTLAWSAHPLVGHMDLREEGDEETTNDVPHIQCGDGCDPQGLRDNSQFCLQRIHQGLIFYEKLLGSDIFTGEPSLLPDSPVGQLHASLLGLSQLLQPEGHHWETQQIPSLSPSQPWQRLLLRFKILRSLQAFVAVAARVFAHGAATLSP
Nature of the assay: ELISA, coated IL-23. The method in brief:
as §1
For orientation: In an ELISA, binding on a coated surface is turned into a signal by an enzyme label.

B1: Antibody 128 (antibody, human IgG1, kappa)
heavy chain: not shown
light chain: DIQMTQSPSSVSATVGDRVTITCRASQSISINLHWYQQKPGKAPKLLIYFASQSISGVPSRFSGSGSGTDFSLTINSLQPEDFATYYCQQSNSFPLTFGGGTKVEIKRTVAAPSVFIFPPSDEQLKSGTASVVCLLNNFYPREAKVQWKVDNALQSGNSQESVTEQDSKDSTYSLSSTLTLSKADYEKHKVYACEVTHQGLSSPVTKSFNRGEC
Regarding B1, the binding result in assay [1] and in assay [2] was “binds” throughout.

B2: Antibody 145 (antibody, human IgG1, kappa, V domains shown)
VH: EVQLVQSGAEVKKPGATVKISCKASGYTFSDYYLHWVRQAPEKGLEWMGWIDPENGDTEYAPKFQGRVTITADTSTDTGYLELSSLRSEDTAVYYCAANKELRYFDVWGQGTLVTVSS
VL: DIQMTQSPSSVSASVGDRVTITCRASQSISINLHWYQQKPGKSPKLLIYFASQSISGVPSRFSGSGSGTDFSLTINSLQPEDFARYYCQQSNSFPLTFGGGTKVEIKR
Take B2: the binding result in assay [1] and in assay [2] was “binds” each time.

B3: Antibody 142 (antibody, human IgG1, kappa, V domains shown)
VH: EVQLVQSGAEVKKPGATVKISCKASGYTFSDYYLHWVRQAPEKGLEWMGWIDPENGDTEYAPKFQGRVTITADTSTDTGYLELSSLRSEDTAVYYCAANKELRYFDVWGQGTLVTVSS
VL: DIQMTQSPSSVSASVGDRVTITCRASQSISINLHWYQQKSGKAPKLLIYFASQSISGVPSRFSGSGSGTDFSLTINSLQPEDFARYYCQQSNSFPLTFGGGTKVEIKR
As to B3, the binding result in assay [1] and in assay [2] was “binds” in each case.

B4: Antibody 143 (antibody, human IgG1, kappa, V domains shown)
VH: EVQLVQSGAEVKKPGATVKISCKASGYTFSDYYLHWVRQAPEKGLEWMGWIDPENGDTEYAPKFQGRVTITADTSTDTGYLELSSLRSEDTAVYYCAANKELRYFDVWGQGTLVTVSS
VL: DIQMTQSPSSVSASVGDRVTITCRASQSISINLHWYQQKPHKAPKLLIYFASQSISGVPSRFSGSGSGTDFSLTINSLQPEDFARYYCQQSNSFPLTFGGGTKVEIKR
As to B4, the binding result in assay [1] and in assay [2] was “binds” in each case.

B5: Antibody 135 (antibody, human IgG1, kappa, V domains shown)
VH: EVQLVQSGAEVKKPGATVKISCKASGYTFSDYYLHWVRQAPEKGLEWMGWIDPENGDTEYAPKFQGRVTITADTSTDTGYLELSSLRSEDTAVYYCAANKELRYFDVWGQGTLVTVSS
VL: DIQMTQSPSSVSASVGDRVTITCRASQSISINLHWYQQKPGKAPKLLIYFASQSISGIPSRFSGSGSGTDFSLTINSLQPEDFATYYCQQSNSFPLTFGGGTKVEIKR
For the molecule B5, the binding result in assay [1] and in assay [2] was “binds” throughout.

B6: Antibody 137 (antibody, human IgG1, kappa, V domains shown)
VH: EVQLVQSGAEVKKPGATVKISCKASGYTFSDYYLHWVRQAPEKGLEWMGWIDPENGDTEYAPKFQGRVTITADTSTDTGYLELSSLRSEDTAVYYCAANKELRYFDVWGQGTLVTVSS
VL: DIQMTQSPSSVSASVGDRVTITCRASQSISINLHWYQQKPGKAPKLLIYFASQSISGVPSRFSGSGSGTDFSLTINSLQPEDFATYFCQQSNSFPLTFGGGTKVEIKR
B6: the binding result in assay [1] and in assay [2] was “binds” throughout.

B7: Antibody 134 (antibody, human IgG1, kappa, V domains shown)
VH: EVQLVQSGAEVKKPGATVKISCKASGYTFSDYYLHWVRQAPEKGLEWMGWIDPENGDTEYAPKFQGRVTITADTSTDTGYLELSSLRSEDTAVYYCAANKELRYFDVWGQGTLVTVSS
VL: DIQMTQSPSSVSASVGDRVTITCRASQSISINLHWYQQKPGKSPKLLIYFASQSISGVPSRFSGSGSGTDFSLTINSLQPEDFATYYCQQSNSFPLTFGGGTKVEIKR
In the case of B7, the binding result in assay [1] and in assay [2] was “binds” throughout.

B8: Antibody 131 (antibody, human IgG1, kappa, V domains shown)
VH: EVQLVQSGAEVKKPGATVKISCKASGYTFSDYYLHWVRQAPEKGLEWMGWIDPENGDTEYAPKFQGRVTITADTSTDTGYLELSSLRSEDTAVYYCAANKELRYFDVWGQGTLVTVSS
VL: DIQMTQSPSSVSASVGDRVTITCRASQSISINLHWYQQKSGKAPKLLIYFASQSISGVPSRFSGSGSGTDFSLTINSLQPEDFATYYCQQSNSFPLTFGGGTKVEIKR
As to B8, the binding result in assay [1] and in assay [2] was “binds” throughout.

B9: Antibody 141 (antibody, human IgG1, kappa)
heavy chain: not shown
light chain: DIQMTQSPSSVSASPGDRVTITCRASQSISINLHWYQQKPGKAPKLLIYFASQSISGVPSRFSGSGSGTDFSLTINSLQPEDFARYYCQQSNSFPLTFGGGTKVEIKRTVAAPSVFIFPPSDEQLKSGTASVVCLLNNFYPREAKVQWKVDNALQSGNSQESVTEQDSKDSTYSLSSTLTLSKADYEKHKVYACEVTHQGLSSPVTKSFNRGEC
Take B9: the binding result in assay [1] and in assay [2] was “binds” each time.

B10: Antibody 140 (antibody, human IgG1, kappa)
heavy: not shown
light: DIQMTQSPSSVSATVGDRVTITCRASQSISINLHWYQQKPGKAPKLLIYFASQSISGVPSRFSGSGSGTDFSLTINSLQPEDFARYYCQQSNSFPLTFGGGTKVEIKRTVAAPSVFIFPPSDEQLKSGTASVVCLLNNFYPREAKVQWKVDNALQSGNSQESVTEQDSKDSTYSLSSTLTLSKADYEKHKVYACEVTHQGLSSPVTKSFNRGEC
Take B10: the binding result in assay [1] and in assay [2] was “binds” throughout.

B11: Antibody 146 (antibody, human IgG1, kappa, V domains shown)
VH: EVQLVQSGAEVKKPGATVKISCKASGYTFSDYYLHWVRQAPEKGLEWMGWIDPENGDTEYAPKFQGRVTITADTSTDTGYLELSSLRSEDTAVYYCAANKELRYFDVWGQGTLVTVSS
VL: DIQMTQSPSSVSASVGDRVTITCRASQSISINLHWYQQKPGKAPKLLIYFASQSISGIPSRFSGSGSGTDFSLTINSLQPEDFARYYCQQSNSFPLTFGGGTKVEIKR
Regarding B11, the binding result in assay [1] and in assay [2] was “binds” in each case.

B12: Antibody 130 (antibody, human IgG1, kappa)
heavy: not shown
light: DIQMTQSPSSVSASPGDRVTITCRASQSISINLHWYQQKPGKAPKLLIYFASQSISGVPSRFSGSGSGTDFSLTINSLQPEDFATYYCQQSNSFPLTFGGGTKVEIKRTVAAPSVFIFPPSDEQLKSGTASVVCLLNNFYPREAKVQWKVDNALQSGNSQESVTEQDSKDSTYSLSSTLTLSKADYEKHKVYACEVTHQGLSSPVTKSFNRGEC
As to B12, the binding result in assay [1] and in assay [2] was “binds” each time.

B13: Antibody 147 (antibody, human IgG1, kappa, V domains shown)
VH: EVQLVQSGAEVKKPGATVKISCKASGYTFSDYYLHWVRQAPEKGLEWMGWIDPENGDTEYAPKFQGRVTITADTSTDTGYLELSSLRSEDTAVYYCAANKELRYFDVWGQGTLVTVSS
VL: DIQMTQSPSSVSASVGDRVTITCRASQSISINLHWYQQKPGKAPKLLIYFASQSISGVPSRFSGSGSGTDFSLTINSLQTEDFARYYCQQSNSFPLTFGGGTKVEIKR
With B13, the binding result in assay [1] and in assay [2] was “binds” each time.

B14: Antibody 144 (antibody, human IgG1, kappa, V domains shown)
VH: EVQLVQSGAEVKKPGATVKISCKASGYTFSDYYLHWVRQAPEKGLEWMGWIDPENGDTEYAPKFQGRVTITADTSTDTGYLELSSLRSEDTAVYYCAANKELRYFDVWGQGTLVTVSS
VL: DIQMTQSPSSVSASVGDRVTITCRASQSISINLHWYQQKPGEAPKLLIYFASQSISGVPSRFSGSGSGTDFSLTINSLQPEDFARYYCQQSNSFPLTFGGGTKVEIKR
As to B14, the binding result in assay [1] and in assay [2] was “binds” in each case.

B15: Antibody 133 (antibody, human IgG1, kappa, V domains shown)
VH: EVQLVQSGAEVKKPGATVKISCKASGYTFSDYYLHWVRQAPEKGLEWMGWIDPENGDTEYAPKFQGRVTITADTSTDTGYLELSSLRSEDTAVYYCAANKELRYFDVWGQGTLVTVSS
VL: DIQMTQSPSSVSASVGDRVTITCRASQSISINLHWYQQKPGEAPKLLIYFASQSISGVPSRFSGSGSGTDFSLTINSLQPEDFATYYCQQSNSFPLTFGGGTKVEIKR
Turning to B15, the binding result in assay [1] and in assay [2] was “binds” in each case.

B16: Antibody 132 (antibody, human IgG1, kappa, V domains shown)
VH: EVQLVQSGAEVKKPGATVKISCKASGYTFSDYYLHWVRQAPEKGLEWMGWIDPENGDTEYAPKFQGRVTITADTSTDTGYLELSSLRSEDTAVYYCAANKELRYFDVWGQGTLVTVSS
VL: DIQMTQSPSSVSASVGDRVTITCRASQSISINLHWYQQKPHKAPKLLIYFASQSISGVPSRFSGSGSGTDFSLTINSLQPEDFATYYCQQSNSFPLTFGGGTKVEIKR
On to B16, for which the binding result in assay [1] and in assay [2] was “binds” each time.

These data come from patent US20110262445A1 (CEPHALON AUSTRALIA, published 2011).
